The target in assay [1] is T1, muFcγRIV-aviHis-biotin (murine, UniProt A0A0B4J1G0 21-203, Biotinylated at the avi tag (tag not included in the letters)).
T1 construct: Captured by anti-Penta His antibody; also called murine FcγRIV; not shown: exact C-terminal limit of the soluble construct
T1 sequence: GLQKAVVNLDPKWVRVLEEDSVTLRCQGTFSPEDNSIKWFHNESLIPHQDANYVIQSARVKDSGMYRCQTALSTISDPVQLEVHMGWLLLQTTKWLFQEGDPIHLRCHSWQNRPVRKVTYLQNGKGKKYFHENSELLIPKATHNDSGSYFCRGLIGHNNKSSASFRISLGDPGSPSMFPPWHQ
Kind of assay: SPR Biacore T100, 25 C; receptor captured via anti-Penta His, construct as analyte; kinetic. Here is the method:
(§1) For analyzing interaction of different Fc-variants with human FcγRIIIa-V158 and murine FcγRIV direct coupling of around 6,500 resonance units (RU) of the anti-Penta His antibody (Qiagen) is performed on a CM5 chip at pH 5.0 using the standard amine coupling kit (Biacore, Freiburg/Germany). HuFcγRIIIa-V158-K6H6 and muFcγRIV-aviHis-biotin are captured for 60 s at 4 and 10 nM respectively.
(§2) Constructs with different Fc-mutations are passed through the flow cells for 120 s at a concentration of 1000 nM with a flow rate of 30 μl/min. The dissociation is monitored for 220 s. Bulk refractive index differences are corrected for by subtracting the response obtained in a reference flow cell. […] Affinity for human FcγRIIIa-V158 and murine FcγRIV was determined for wild-type Fc using a concentration range from 500-4000 nM.
(§3) The steady state response was used to derive the dissociation constant KD by non-linear curve fitting of the Langmuir binding isotherm. Kinetic constants were derived using the Biacore T100 Evaluation Software (vAA, Biacore AB, Uppsala/Sweden), to fit rate equations for 1:1 Langmuir binding by numerical integration.
Background: Surface plasmon resonance follows binding to a sensor surface in real time, without labels.

In assay [2] the target is T2, HuFcγRIIIa-V158-K6H6 (human, UniProt P08637 17-208, limits assumed).
T2 construct: His-tagged recombinant receptor captured by anti-Penta His antibody; also called human FcγRIIIa-V158; human FcγRIIIa
Put plainly: SPR Biacore T100, 25 C; receptor captured via anti-Penta His, construct as analyte; steady state. As for the experimental part: as §1, §2, §3

Assay [3] addresses T1, muFcγRIV-aviHis-biotin. Described as above. Here is the method: as §1, §2, §3
Assay [4] concerns the target T2, HuFcγRIIIa-V158-K6H6. Kind of assay: SPR Biacore T100, 25 C; receptor captured via anti-Penta His, construct as analyte; kinetic, one concentration (1000 nM). Here is the method: as §1, §2
Assay [5] has as its target T2, HuFcγRIIIa-V158-K6H6. Put plainly: SPR Biacore T100, 25 C; receptor captured via anti-Penta His, construct as analyte; kinetic, value in brackets not explained. Here is the method: as §1, §2, §3
The target of assay [6] is T3, hu-MCSP(D3 domain)-avi-his (human, UniProt Q6UVK1 1582-2224).
T3 construct: Recombinant D3 domain with avi and his tags; also called human MCSP(D3 domain)-avi-his; Human MCSP D3
T3 sequence: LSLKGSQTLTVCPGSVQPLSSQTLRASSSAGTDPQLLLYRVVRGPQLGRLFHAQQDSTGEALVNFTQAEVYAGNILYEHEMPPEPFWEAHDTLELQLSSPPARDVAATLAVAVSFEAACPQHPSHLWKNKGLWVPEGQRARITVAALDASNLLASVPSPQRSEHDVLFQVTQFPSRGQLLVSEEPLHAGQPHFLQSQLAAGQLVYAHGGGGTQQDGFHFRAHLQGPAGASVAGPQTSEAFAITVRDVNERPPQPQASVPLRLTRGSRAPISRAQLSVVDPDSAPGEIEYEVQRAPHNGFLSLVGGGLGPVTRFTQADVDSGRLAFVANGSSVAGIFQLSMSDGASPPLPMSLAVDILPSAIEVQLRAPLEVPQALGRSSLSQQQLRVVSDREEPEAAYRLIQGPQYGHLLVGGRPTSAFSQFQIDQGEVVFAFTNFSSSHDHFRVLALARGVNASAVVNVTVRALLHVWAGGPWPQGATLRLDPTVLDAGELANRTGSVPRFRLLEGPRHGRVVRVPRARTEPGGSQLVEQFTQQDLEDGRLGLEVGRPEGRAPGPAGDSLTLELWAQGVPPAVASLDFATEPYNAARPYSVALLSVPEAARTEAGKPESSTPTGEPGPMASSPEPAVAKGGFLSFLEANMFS
Kind of assay: SPR Biacore T100, 25 C; t1/2 = ln 2/koff. As for the experimental part:
(§4) Capture IgG was coupled to the sensorchip surface by direct immobilization of around 7,500 resonance units (RU) at pH 5.0 using the standard amine coupling kit (Biacore, Freiburg/Germany). […] Since the interaction with murine MCSP (SEQ ID NO: 380) was expected to be weak the concentration range for this antigen was chosen between 3.9 and 500 nM. The dissociation for all interactions was monitored for 120 s. Bulk refractive index differences were corrected for by subtracting the response obtained on a reference flow cell.
(§5) Kinetic constants were derived using the Biacore T200 Evaluation Software (vAA, Biacore AB, Uppsala/Sweden), to fit rate equations for 1:1 Langmuir binding by numerical integration. […] The half-life (t_{1/2}) of the interaction was calculated using following formula: t_{1/2}=ln 2/koff.

For assay [7], the target named is T4, cynomolgus MCSP D3 (cynomolgus, UniProt Q6UVK1 1582-2224 (human entry), limits assumed).
T4 construct: also called Cyno MCSP; cynomolgus homologue
T4 chain: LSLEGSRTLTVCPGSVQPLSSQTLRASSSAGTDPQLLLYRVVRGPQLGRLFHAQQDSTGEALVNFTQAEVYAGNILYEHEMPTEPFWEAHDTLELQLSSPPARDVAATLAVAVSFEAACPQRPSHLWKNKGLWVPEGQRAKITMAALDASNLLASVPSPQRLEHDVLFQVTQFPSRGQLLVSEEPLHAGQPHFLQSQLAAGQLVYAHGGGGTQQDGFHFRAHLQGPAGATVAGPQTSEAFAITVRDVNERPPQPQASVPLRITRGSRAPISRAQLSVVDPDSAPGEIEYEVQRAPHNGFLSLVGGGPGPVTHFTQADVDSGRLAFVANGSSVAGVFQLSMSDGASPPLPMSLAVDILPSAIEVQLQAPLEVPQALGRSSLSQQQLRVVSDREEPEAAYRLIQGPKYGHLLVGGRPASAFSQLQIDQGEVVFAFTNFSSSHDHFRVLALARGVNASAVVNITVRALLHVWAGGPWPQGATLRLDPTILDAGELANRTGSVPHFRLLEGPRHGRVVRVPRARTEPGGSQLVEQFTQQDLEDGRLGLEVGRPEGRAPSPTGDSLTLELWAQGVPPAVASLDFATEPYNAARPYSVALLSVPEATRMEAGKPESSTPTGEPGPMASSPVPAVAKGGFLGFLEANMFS
Put plainly: SPR Biacore T100, 25 C; t1/2 = ln 2/koff. As for the experimental part:
as §4, §5

The target in assay [8] is T5, human CD3ε stalk-Fc (knob)-Avi/CD3δ-stalk-Fc(hole) (human).
T5 construct: also called Human CD3ε/CD3δ; recombinant CD3ε/CD3δ
Kind of assay: SPR Biacore T100, 25 C; t1/2 = ln 2/koff. Here is the method: as §4, §5

Assay [9] deals with T3, hu-MCSP(D3 domain)-avi-his. Put plainly: SPR Biacore T100, 25 C; TCB captured via anti-human Fab, antigen as analyte. Here is the method:
(§6) Surface plasmon resonance (SPR) experiments were performed on a Biacore T100 at 25° C. with HBS-EP as running buffer (0.01 M HEPES pH 7.4, 0.15 M NaCl, 3 mM EDTA, 0.005% Surfactant P20, Biacore, Freiburg/Germany).
as §4, §5

Assay [10] deals with T4, cynomolgus MCSP D3. The description is as above. Here is the method:
as §6, §4, §5

The target in assay [11] is T5, human CD3ε stalk-Fc …. Described as above. As for the experimental part:
as §6, §4, §5

The next assay deals with T6, murine MCSP D3 (murine, UniProt Q8VHY0 1587-2218, limits assumed).
T6 construct: also called recombinant murine MCSP D3
T6 sequence: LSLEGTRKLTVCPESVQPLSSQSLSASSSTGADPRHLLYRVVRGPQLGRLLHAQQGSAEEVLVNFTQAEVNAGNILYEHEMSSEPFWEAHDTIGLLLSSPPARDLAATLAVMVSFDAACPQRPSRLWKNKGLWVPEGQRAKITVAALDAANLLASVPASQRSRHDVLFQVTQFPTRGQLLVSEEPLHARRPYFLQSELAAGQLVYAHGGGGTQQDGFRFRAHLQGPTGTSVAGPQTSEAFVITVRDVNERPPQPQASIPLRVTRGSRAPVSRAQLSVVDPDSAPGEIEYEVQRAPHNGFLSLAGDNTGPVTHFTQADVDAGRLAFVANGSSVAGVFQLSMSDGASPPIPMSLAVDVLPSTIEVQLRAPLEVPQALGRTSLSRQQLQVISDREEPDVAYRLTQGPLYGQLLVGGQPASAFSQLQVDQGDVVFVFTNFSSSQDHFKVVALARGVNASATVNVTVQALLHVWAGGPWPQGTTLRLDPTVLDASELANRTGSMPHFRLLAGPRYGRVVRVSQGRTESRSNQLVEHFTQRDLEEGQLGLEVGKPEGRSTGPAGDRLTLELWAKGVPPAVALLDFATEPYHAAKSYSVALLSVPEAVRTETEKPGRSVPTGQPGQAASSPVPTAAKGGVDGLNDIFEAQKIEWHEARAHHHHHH
Put plainly: SPR Biacore T100, 25 C; TCB captured via anti-human Fab, antigen as analyte; steady state. Here is the method: as §4, §5

For two molecules, Kd and t1/2 results are on record in patent US20140242080A1 (Hoffmann-La Roche, published 2014).

In general, Kd refers to the free concentration of one partner at which half of the binding sites on the other are occupied at equilibrium, for simple one-to-one binding. High values mean weaker binding, low ones tighter binding.

T2 sequence (P08637 17-208 F176V limits assumed): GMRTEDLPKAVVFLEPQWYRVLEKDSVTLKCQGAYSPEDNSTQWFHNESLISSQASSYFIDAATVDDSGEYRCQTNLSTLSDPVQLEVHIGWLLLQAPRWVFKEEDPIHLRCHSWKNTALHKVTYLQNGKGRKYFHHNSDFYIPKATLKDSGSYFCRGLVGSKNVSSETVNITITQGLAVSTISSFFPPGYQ
T5 sequence (chain, as listed by the source mutant limits assumed, chain 1 of 2): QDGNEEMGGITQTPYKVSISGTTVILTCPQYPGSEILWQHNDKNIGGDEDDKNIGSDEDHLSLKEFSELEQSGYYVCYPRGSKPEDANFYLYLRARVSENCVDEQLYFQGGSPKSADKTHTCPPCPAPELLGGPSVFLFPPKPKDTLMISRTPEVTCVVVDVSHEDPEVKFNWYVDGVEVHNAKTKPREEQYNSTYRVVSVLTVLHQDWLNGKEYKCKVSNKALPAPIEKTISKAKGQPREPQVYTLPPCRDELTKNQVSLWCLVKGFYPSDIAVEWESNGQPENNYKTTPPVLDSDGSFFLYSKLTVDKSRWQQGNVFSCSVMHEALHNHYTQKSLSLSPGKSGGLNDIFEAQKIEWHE
T5 sequence (chain, as listed by the source mutant limits assumed, chain 2 of 2): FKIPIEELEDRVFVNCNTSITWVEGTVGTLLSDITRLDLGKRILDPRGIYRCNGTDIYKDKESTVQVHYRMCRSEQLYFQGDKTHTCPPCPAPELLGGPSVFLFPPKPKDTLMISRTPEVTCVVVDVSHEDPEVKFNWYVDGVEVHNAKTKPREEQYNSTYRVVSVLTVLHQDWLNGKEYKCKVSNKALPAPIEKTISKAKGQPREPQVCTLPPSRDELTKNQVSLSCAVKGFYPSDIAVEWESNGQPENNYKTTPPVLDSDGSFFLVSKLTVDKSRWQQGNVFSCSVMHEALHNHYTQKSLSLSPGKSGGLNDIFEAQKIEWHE

B1: “2+1 IgG scFab, wt” (anti-MCSP/anti-huCD3) (bispecific antibody)
chain 1: DIVLTQSPSSLSASLGDRVTISCSASQGIRNYLNWYQQRPDGTVKLLIYYTSSLHSGVPSRFSGSGSGTDYSLTISNLEPEDIATYYCQQYSKLPWTFGGGTKLEIKRTVAAPSVFIFPPSDEQLKSGTASVVCLLNNFYPREAKVQWKVDNALQSGNSQESVTEQDSKDSTYSLSSTLTLSKADYEKHKVYACEVTHQGLSSPVTKSFNRGEC
chain 2: not shown
chain 3: not shown
notes: Wild-type Fc domain; also called Fc-wt; copies: 2 + 1 + 1
For B1, the Kd with muFcγRIV-aviHis-biotin [1] was 576 nM; with HuFcγRIIIa-V158-K6H6 [2] it was 3470 nM; in the assay with muFcγRIV-aviHis-biotin [3] it was 1500 nM; in the assay with HuFcγRIIIa-V158-K6H6 [4], 600 nM; with HuFcγRIIIa-V158-K6H6 [5] it was 1200 nM.

B2: MCSP TCB (2+1 Crossfab-IgG P329G LALA inverted) (bispecific antibody)
light 1: not shown
light 2: QAVVTQEPSLTVSPGGTVTLTCGSSTGAVTTSNYANWVQEKPGQAFRGLIGGTNKRAPGTPARFSGSLLGGKAALTLSGAQPEDEAEYYCALWYSNLWVFGGGTKLTVLSSASTKGPSVFPLAPSSKSTSGGTAALGCLVKDYFPEPVTVSWNSGALTSGVHTFPAVLQSSGLYSLSSVVTVPSSSLGTQTYICNVNHKPSNTKVDKKVEPKSC
heavy 1: not shown
heavy 2: QVQLQESGPGLVKPSQTLSLTCTVSGGSITSGYYWNWIRQHPGKGLEWIGYITFDGSNNYNPSLKSRVTISRDTSKNQFSLKLSSVTAADTAVYYCADFDYWGQGTLVTVSSASTKGPSVFPLAPSSKSTSGGTAALGCLVKDYFPEPVTVSWNSGALTSGVHTFPAVLQSSGLYSLSSVVTVPSSSLGTQTYICNVNHKPSNTKVDKKVEPKSCDKTHTCPPCPAPEAAGGPSVFLFPPKPKDTLMISRTPEVTCVVVDVSHEDPEVKFNWYVDGVEVHNAKTKPREEQYNSTYRVVSVLTVLHQDWLNGKEYKCKVSNKALGAPIEKTISKAKGQPREPQVCTLPPSRDELTKNQVSLSCAVKGFYPSDIAVEWESNGQPENNYKTTPPVLDSDGSFFLVSKLTVDKSRWQQGNVFSCSVMHEALHNHYTQKSLSLSPGK
notes: also called MCSP TCB antibody; MCSP CD3 bispecific antibody
Regarding B2, the t1/2 in assay [6] amounted to 3.42 h; with cynomolgus MCSP D3 [7], 4.38 h; in [8], 2.9 min. In addition, the Kd in assay [9] worked out at 0.15 nM; with cynomolgus MCSP D3 [10], 0.12 nM; in assay [11], 78.7 nM; with murine MCSP D3, 1570 nM.
